Laboratory results from article PMC6715699.

Tests used:
CSL (RBP-Jkappa) [1] = target: T1, CSL (RBP-Jkappa) (UniProt Q06330 1-500); assay: MST; 50 nM labelled DNA; MST in standard MST buffer (composition and pH not given), premium-treated capillaries, Monolith NT.115; 20 min at room temperature stated for the protein mixes; conditions: protein: commercial; tags: RED-NHS dye when labelled; label: 647-NHS; blunt
UPF1 = target: T2, UPF1 (UniProt Q92900 1-352+364-1129, internal_change); assay: MST; 50 nM labelled DNA; no binding specificity; MST in standard MST buffer (composition and pH not given), premium-treated capillaries, Monolith NT.115; 20 min at room temperature stated for the protein mixes; conditions: protein: commercial; label: 647-NHS; blunt
T2 sequence: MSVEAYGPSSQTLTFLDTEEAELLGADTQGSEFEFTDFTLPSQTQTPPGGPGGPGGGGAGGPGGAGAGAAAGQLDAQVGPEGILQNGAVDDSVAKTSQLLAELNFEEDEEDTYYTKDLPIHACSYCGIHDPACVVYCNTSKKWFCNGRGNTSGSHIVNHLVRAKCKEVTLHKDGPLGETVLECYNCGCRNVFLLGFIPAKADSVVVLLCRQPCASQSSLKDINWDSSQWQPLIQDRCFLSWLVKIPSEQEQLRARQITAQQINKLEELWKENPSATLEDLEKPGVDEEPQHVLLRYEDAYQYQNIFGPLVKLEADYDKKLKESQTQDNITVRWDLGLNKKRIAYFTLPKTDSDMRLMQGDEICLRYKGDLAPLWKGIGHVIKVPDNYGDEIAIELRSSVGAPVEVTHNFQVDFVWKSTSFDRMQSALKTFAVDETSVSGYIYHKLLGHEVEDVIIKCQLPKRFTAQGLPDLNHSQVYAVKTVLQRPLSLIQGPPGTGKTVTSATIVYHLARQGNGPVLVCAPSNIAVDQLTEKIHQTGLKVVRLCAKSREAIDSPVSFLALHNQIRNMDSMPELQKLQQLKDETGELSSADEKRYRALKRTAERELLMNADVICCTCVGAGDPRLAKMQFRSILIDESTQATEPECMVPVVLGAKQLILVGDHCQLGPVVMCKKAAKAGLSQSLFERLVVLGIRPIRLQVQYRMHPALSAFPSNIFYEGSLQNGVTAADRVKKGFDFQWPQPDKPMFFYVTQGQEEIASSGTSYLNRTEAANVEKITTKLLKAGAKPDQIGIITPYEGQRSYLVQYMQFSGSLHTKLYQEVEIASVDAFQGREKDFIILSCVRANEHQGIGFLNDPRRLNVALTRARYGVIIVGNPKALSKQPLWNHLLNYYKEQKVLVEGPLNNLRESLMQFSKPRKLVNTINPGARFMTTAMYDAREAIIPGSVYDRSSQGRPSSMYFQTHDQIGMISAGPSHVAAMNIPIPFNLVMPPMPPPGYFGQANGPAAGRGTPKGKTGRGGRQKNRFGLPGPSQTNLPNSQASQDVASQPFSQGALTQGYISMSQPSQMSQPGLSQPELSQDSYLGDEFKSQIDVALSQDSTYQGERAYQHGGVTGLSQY

CSL (RBP-Jkappa) [2] = target: T1, CSL (RBP-Jkappa); assay: MST; second independent experiment; 50 nM labelled DNA; MST in standard MST buffer (composition and pH not given), premium-treated capillaries, Monolith NT.115; 20 min at room temperature stated for the protein mixes; conditions: protein: commercial; tags: RED-NHS dye when labelled; label: 647-NHS; blunt
CSL (RBP-Jkappa) [3] = target: T1, CSL (RBP-Jkappa); assay: MST; 200 nM labelled CSL; MST in standard MST buffer (composition and pH not given), premium-treated capillaries, Monolith NT.115; 20 min at room temperature stated for the protein mixes; conditions: protein: commercial; tags: RED-NHS dye when labelled; blunt

T1 sequence (Q06330 whole entry): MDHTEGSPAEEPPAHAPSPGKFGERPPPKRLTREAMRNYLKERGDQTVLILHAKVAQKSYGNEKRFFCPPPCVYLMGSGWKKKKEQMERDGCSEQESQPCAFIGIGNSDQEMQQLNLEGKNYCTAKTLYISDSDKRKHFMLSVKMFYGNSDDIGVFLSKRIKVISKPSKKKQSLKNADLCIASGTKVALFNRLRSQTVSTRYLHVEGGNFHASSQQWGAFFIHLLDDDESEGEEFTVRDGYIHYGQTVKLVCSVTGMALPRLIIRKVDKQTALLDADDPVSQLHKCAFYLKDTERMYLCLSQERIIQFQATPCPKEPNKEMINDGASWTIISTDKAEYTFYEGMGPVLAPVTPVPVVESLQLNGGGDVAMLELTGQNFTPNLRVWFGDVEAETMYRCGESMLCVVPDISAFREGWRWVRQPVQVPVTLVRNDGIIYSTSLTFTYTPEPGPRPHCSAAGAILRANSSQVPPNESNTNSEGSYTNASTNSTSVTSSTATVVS

Binder | Kd (CSL (RBP-Jkappa) [1]) | Kd (UPF1) | Kd (CSL (RBP-Jkappa) [2]) | Kd (CSL (RBP-Jkappa) [3])
TELO (TTAGGG)3 (dsDNA) DNA 1: TTAGGGTTAGGGTTAGGG DNA 2: CCCTAACCCTAACCCTAA | 235 ± 23.9 nM | 3.52 ± 0.0468 µM | 232 ± 15.4 nM | –
CSL specific motif (dsDNA) DNA 1: GTTACTGTGGGAAAGAAAG DNA 2: CTTTCTTTCCCACAGTAAC | – | – | – | 121 ± 17.4 nM
SCRAMBLED (dsDNA) DNA 1: GCTACTCATACCTAGAACG DNA 2: CGTTCTAGGTATGAGTAGC | – | – | – | 3380 ± 77.6 nM
